This passage reports Km results from publication PMC3102279.

One may read the Km as the substrate concentration at which the rate is half of its maximum.

Substrate in series [1]: Nc1ncnc2c1ncn2[C@@H]1O[C@H](COP(=O)(O)OP(=O)(O)OP(=O)(O)O)[C@@H](O)[C@H]1O
The series can be described thus: purified protein. Conditions: Mg2+.

Substrate in series [2]: Nc1ncnc2c1ncn2[C@@H]1O[C@H](COP(=O)(O)OP(=O)(O)OP(=O)(O)O)[C@@H](O)[C@H]1O
The series can be described thus: purified protein. In kind it is biochemical, Homo sapiens. To be noted: Mg2+.

B1: Aurora B (Homo sapiens) (protein)
chain: SNVQPTAAPGQKVMENSSGTPDILTRHFTIDDFEIGRPLGKGKFGNVYLAREKKSHFIVALKVLFKSQIEKEGVEHQLRREIEIQAHLHHPNILRLYNYFYDRRRIYLILEYAPRGELYKELQKSCTFDEQRTATIMEELADALMYCHGKKVIHRDIKPENLLLGLKGELKIADFGWSVHAPSLRRKTMCGTLDYLPPEMIEGRMHNEKVDLWCIGVLCYELLVGNPPFESASHNETYRRIVKVDLKFPASVPMGAQDLISKLLRHNPSERLPLAQVSAHPWVRANSRRVLPPSALQSVA
Turning to B1, the Michaelis constant (Km) in the series “purified protein [1]” amounted to 16.5 µM.

B2: Mps1 (Homo sapiens) (protein)
chain: MESEDLSGRELTIDSIMNKVRDIKNKFKNEDLTDELSLNKISADTTDNSGTVNQIMMMANNPEDWLSLLLKLEKNSVPLSDALLNKLIGRYSQAIEALPPDKYGQNESFARIQVRFAELKAIQEPDDARDYFQMARANCKKFAFVHISFAQFELSQGNVKKSKQLLQKAVERGAVPLEMLEIALRNLNLQKKQLLSEEEKKNLSASTVLTAQESFSGSLGHLQNRNNSCDSRGQTTKARFLYGENMPPQDAEIGYRNSLRQTNKTKQSCPFGRVPVNLLNSPDCDVKTDDSVVPCFMKRQTSRSECRDLVVPGSKPSGNDSCELRNLKSVQNSHFKEPLVSDEKSSELIITDSITLKNKTESSLLAKLEETKEYQEPEVPESNQKQWQSKRKSECINQNPAASSNHWQIPELARKVNTEQKHTTFEQPVFSVSKQSPPISTSKWFDPKSICKTPSSNTLDDYMSCFRTPVVKNDFPPACQLSTPYGQPACFQQQQHQILATPLQNLQVLASSSANECISVKGRIYSILKQIGSGGSSKVFQVLNEKKQIYAIKYVNLEEADNQTLDSYRNEIAYLNKLQQHSDKIIRLYDYEITDQYIYMVMECGNIDLNSWLKKKKSIDPWERKSYWKNMLEAVHTIHQHGIVHSDLKPANFLIVDGMLKLIDFGIANQMQPDTTSVVKDSQVGTVNYMPPEAIKDMSSSRENGKSKSKISPKSDVWSLGCILYYMTYGKTPFQQIINQISKLHAIIDPNHEIEFPDIPEKDLQDVLKCCLKRDPKQRISIPELLAHPYVQIQTHPVNQMAKGTTEEMKYVLGQLVGLNSPNSILKAAKTLYEHYSGGESHNSSSSKTFEKKRGKK
With B2, in “purified protein [2]”, the Km came out at 4.9 µM.
